Where a chain is given by its changes, count along the chain named. Names may count otherwise.
B1: TNFrED H34P (receptor)
chain: DSVCPQGKYIHPQNNSICCTKCPKGTYLYNDCPGPGQDTDCRECESGSFTASENHLRHCLSCSKCRKEMGQVEISSCTVDRDTVCGCRKNQYRHYWSENLFQCFNCSLCLNGTVHLSCQEKQNTVCTCHAGFFLRENECVSCSNCKKSLECTKLCLPQIEN
notes: Secreted from HEK293-EBNA cells, conditioned medium
B2: TNFrED H34P+S57I (receptor)
chain: B1 chain with S46I
notes: Secreted from HEK293-EBNA cells, conditioned medium; also called H34P + S571
B3: TNFrED H34P+S57I+S87P (receptor)
chain: B1 chain with S46I, S76P
notes: Secreted from HEK293-EBNA cells, conditioned medium; also called H34P + S87P + S571
B4: TNFrED H34P+S87P (receptor)
chain: B1 chain with S76P
notes: as for B1
B5: TNFrED S57I (receptor)
chain: B1 chain with P23H, S46I
notes: Secreted from HEK293-EBNA cells, conditioned medium; also called S571
B6: TNFrED S87P (receptor)
chain: B1 chain with P23H, S76P
notes: as for B1

Biological target: T1, human TNF-alpha (hTNF-alpha) (human, UniProt P01375 77-233)
T1 construct: also called biotinylated hTNF-; [125I]TNF-
Assay: SPR (BIAcore), TNFrED captured on BAF225 anti-TNFrED surface, TNF-alpha injected at 1-100 nM, global 1:1 fit
Excerpt: Conditioned media from transient transfections of HEK293-EBNA cells were concentrated with Centricon 10s and the amount of TNFrED protein was quantitated with the R & D Systems ELISA for hTNF R-1. […] Conditioned medium (no TNFrED) and HBS were used as negative controls.

| Binder | Kd [nM] | koff [s⁻¹] | kon [M⁻¹ s⁻¹] |
| --- | --- | --- | --- |
| B1 | 0.5 | 0.0009 | 1.9e+06 |
| B2 | 0.6 | 0.0012 | 1.9e+06 |
| B3 | 0.6 | 0.001 | 1.8e+06 |
| B4 | 0.6 | 0.0012 | 1.9e+06 |
| B5 | 0.5 | 0.0009 | 1.9e+06 |
| B6 | 0.6 | 0.0011 | 2e+06 |

— patent US20050074840A1 (published 2005)
